Assay results as given in publication PMC4869175, “Evidence that phytochrome functions as a protein kinase in plant light signalling” (Nature Communications, 2016).

Legend:
[1] = molecular target: T1, Avena sativa phytochrome A, full-length wild type (Avena sativa, UniProt P06593 1-1129, phycocyanobilin chromophore assembled (chromophore-binding site C322)); experiment: pull-down; GST/strep-fused interacting protein (1.0 μg) held on glutathione resin, phytochrome (1.0 μg) in solution, Pr and Pfr forms both tested; 60 min at 4 °C in pull-down buffer (100 mM Tris-HCl pH 7.8, 1 mM EDTA, 150 mM NaCl, 100 μg/ml BSA); western blot with oat22 and anti-GST; details: both partners purified
T1 construct: Avena sativa (oat) phytochrome A, full-length gene AsPHYA; 1129 residues by the printed construct limits (66-1129aa); Used as Pr (far-red irradiated) and Pfr (red irradiated) forms; also called AsphyA; FL-AsphyA; source: phycocyanobilin added in vitro
T1 sequence (looked up): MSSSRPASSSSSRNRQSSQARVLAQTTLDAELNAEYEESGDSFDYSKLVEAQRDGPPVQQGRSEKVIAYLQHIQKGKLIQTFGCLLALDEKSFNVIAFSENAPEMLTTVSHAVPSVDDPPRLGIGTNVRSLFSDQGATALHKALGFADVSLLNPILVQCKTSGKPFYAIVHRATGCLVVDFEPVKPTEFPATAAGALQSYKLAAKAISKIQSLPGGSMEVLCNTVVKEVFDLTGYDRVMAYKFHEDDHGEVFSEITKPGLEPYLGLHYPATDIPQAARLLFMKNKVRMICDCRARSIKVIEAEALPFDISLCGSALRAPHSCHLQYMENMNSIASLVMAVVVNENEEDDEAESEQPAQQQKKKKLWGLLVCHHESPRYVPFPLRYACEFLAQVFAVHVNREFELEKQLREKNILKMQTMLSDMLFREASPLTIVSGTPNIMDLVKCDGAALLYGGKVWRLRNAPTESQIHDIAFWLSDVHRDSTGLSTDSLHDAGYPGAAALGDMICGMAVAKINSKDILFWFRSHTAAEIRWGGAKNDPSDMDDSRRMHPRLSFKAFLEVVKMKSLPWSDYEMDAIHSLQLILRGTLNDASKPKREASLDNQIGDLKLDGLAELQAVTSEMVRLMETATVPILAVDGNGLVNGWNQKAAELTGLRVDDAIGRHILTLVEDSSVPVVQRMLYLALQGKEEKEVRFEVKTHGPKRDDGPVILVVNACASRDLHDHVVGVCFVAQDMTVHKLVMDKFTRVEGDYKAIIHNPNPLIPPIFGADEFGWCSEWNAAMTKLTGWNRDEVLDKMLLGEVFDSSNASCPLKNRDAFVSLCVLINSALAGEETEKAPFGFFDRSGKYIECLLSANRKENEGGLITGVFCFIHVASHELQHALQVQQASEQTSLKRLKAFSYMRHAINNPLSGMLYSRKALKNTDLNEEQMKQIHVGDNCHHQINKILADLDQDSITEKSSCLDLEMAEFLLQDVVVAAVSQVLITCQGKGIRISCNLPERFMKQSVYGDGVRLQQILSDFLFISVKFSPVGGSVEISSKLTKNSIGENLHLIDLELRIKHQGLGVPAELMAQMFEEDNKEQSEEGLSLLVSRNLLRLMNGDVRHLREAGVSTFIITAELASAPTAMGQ

[2] = molecular target: T2, AsphyA K411L, full length (Avena sativa, UniProt P06593 1-1129, K411L, phycocyanobilin chromophore assembled); experiment: as above; details: both partners purified
T2 construct: Avena sativa phytochrome A, full length, with K411L; source: phycocyanobilin added in vitro
T2 sequence (looked up): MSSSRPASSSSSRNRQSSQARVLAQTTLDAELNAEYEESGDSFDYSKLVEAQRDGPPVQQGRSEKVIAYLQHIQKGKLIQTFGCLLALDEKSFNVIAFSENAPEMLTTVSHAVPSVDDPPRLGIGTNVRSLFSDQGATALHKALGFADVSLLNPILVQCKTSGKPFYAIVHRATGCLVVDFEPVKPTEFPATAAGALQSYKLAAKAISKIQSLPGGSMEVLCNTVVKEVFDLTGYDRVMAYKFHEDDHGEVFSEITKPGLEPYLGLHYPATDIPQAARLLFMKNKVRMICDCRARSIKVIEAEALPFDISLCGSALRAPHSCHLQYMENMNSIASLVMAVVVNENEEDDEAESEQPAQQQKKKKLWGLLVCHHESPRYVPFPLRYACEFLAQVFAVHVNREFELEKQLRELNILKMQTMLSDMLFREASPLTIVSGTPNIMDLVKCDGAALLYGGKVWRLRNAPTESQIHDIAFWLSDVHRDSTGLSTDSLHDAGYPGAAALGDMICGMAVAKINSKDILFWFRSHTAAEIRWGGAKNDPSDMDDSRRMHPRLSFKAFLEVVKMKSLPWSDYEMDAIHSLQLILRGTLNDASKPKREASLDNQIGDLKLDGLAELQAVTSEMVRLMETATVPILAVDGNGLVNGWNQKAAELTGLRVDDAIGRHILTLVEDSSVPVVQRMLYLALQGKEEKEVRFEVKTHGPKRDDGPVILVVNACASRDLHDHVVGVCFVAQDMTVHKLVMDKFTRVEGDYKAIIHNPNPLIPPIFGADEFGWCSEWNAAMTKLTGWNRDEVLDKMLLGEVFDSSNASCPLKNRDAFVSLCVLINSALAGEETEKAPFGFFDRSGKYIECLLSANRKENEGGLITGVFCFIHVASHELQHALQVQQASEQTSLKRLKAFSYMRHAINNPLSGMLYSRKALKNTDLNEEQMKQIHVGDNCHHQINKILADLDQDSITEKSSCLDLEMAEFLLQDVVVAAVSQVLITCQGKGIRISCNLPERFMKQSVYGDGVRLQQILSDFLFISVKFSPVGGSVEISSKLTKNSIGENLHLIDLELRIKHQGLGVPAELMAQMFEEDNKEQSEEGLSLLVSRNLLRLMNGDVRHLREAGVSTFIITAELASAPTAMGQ

B1: GST/strep-fused FHL (natural protein, UniProt A8MR65 1-201, looked up)
chain: MDDADKSCSPSLDHSDINDPMIVAVESLDTSKKRKLHAEESDLLPLPKHFCSEHQASLVNSSCPSSVIDYAECSYAMENTKTSDEASSSASFTGPSLYMFKDSIYSTGSSSSGYAATSSIEQCFSKVDHKTQEDTQDFTHMEFIYHDSEFAVEDLQEVLNPVESYILSSARWSVSNQDSKEATTKPTIDQEFEQYFSTLMM
notes: FHL, which with FHY1 takes part in the nuclear localization of phyA; not shown: GST, N-terminal, kept
B1: binds [1]; binds [2].

B2: GST/strep-fused FHY1 (far-red elongated hypocotyl 1) (natural protein, UniProt Q8S4Q6 1-202, looked up)
chain: MPEVEVDNNNEKPSEINSFHHMIISSSKNVLKMEEVEVSKKRKFQTDQSDELSLLPLSKHTCFANVACSENTNGNSEIDTEYSMSSYVNSTTSMECNNDIEMKEESSGSCGEDKMISFESHLDYIYGTQNLEDFSEKVIENILYLDEQEEEEEDAKGCSSNAAKFVLSSGRWTVNQDDSTLHETKKPTIDQEFEQYFSTLML
notes: FHY1 (far-red elongated hypocotyl 1); not shown: GST, N-terminal, kept
B2: binds [1]; binds [2].

B3: GST/strep-fused PIF3 (natural protein, UniProt O80536 1-524, looked up)
chain: MPLFELFRLTKAKLESAQDRNPSPPVDEVVELVWENGQISTQSQSSRSRNIPPPQANSSRAREIGNGSKTTMVDEIPMSVPSLMTGLSQDDDFVPWLNHHPSLDGYCSDFLRDVSSPVTVNEQESDMAVNQTAFPLFQRRKDGNESAPAASSSQYNGFQSHSLYGSDRARDLPSQQTNPDRFTQTQEPLITSNKPSLVNFSHFLRPATFAKTTNNNLHDTKEKSPQSPPNVFQTRVLGAKDSEDKVLNESVASATPKDNQKACLISEDSCRKDQESEKAVVCSSVGSGNSLDGPSESPSLSLKRKHSNIQDIDCHSEDVEEESGDGRKEAGPSRTGLGSKRSRSAEVHNLSERRRRDRINEKMRALQELIPNCNKVDKASMLDEAIEYLKSLQLQVQIMSMASGYYLPPAVMFPPGMGHYPAAAAAMAMGMGMPYAMGLPDLSRGGSSVNHGPQFQVSGMQQQPVAMGIPRVSGGGIFAGSSTIGNGSTRDLSGSKDQTTTNNNSNLKPIKRKQGSSDQFCGSS
notes: Probably Arabidopsis PIF3, as PIF1 and PIF4 are called Arabidopsis; not shown: GST, N-terminal, kept
B3: binds [1]; binds [2].
